Sequences and labels used below:
B1: EPB41L3 (parent)
chain: SDYISEFRFAPNHTKELEDKVIEL
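Note: lentivirally expressed fusions sorted by FACS into six bins by GFP to DsRed ratio, PSI derived from sequencing read proportions per bin multiplied by bin number.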

The variants in the data set derive from B1. The data set is described as follows: protein stability index of a GFP-peptide fusion (GPS, HEK-293T) (PSI 1-6); higher = more stable. As to conditions: c terminus: a fixed tail appended.
For SDYISEFRFAPNHTKNLEDKVIEL [E16N], the protein stability index came to 1.76.
SDYISEFRFAPNHTKMLEDKVIEL [E16M]: the protein stability index was determined as 3.24.
On to SDYISEFRFAPNHTKQLEDKVIEL [E16Q], for which the protein stability index worked out at 2.3.
Consider SDYISEFRFAPNHCKELEDKVIEL [T14C], for which the protein stability index worked out at 2.02.
In the case of SDYISEFRFAPNHEKELEDKVIEL [T14E], the protein stability index is 2.74.
With SDYISEFRFAPNHSKELEDKVIEL [T14S], the protein stability index amounted to 1.76.
For SDYISEFRFAPNHIKELEDKVIEL [T14I] the value was 2.7; for SDYISEFRFAPAHTKELEDKVIEL [N12A], 2.2; for SDYISEFRFAPPHTKELEDKVIEL [N12P], 2.19.
For SDYISEFRFAPLHTKELEDKVIEL [N12L] the value was 2.2; for SDYISEFRFAPNITKELEDKVIEL [H13I], 2.28; for SDYISEFRFAPNQTKELEDKVIEL [H13Q], 2.46.
Consider SDYISEFRFAPNHTKELIDKVIEL [E18I], for which the protein stability index came to 2.19.
Turning to SDYISEFRFAPNHTKELCDKVIEL [E18C], the protein stability index came out at 1.44.
Take SDYISEFRFAPNHTKELFDKVIEL [E18F]: the protein stability index is 1.8.
In the case of SDYISWFRFAPNHTKELEDKVIEL [E6W] it was 2.23; in that of SDYISYFRFAPNHTKELEDKVIEL [E6Y], 1.84.
As for SDYISQFRFAPNHTKELEDKVIEL [E6Q], the protein stability index was found to be 2.02.
For SDYISIFRFAPNHTKELEDKVIEL [E6I], the protein stability index amounted to 2.12.
On to SDYISEFRFAPNHTKELEDKVEEL [I22E], for which the protein stability index was 2.94.
For SDYISEFRFAPNHTKELEDKVKEL [I22K], the protein stability index stood at 2.51.
In the case of SDYISEFRFAPNHTKELEDKVCEL [I22C] it was 2.19; in that of SDYISEFRFAPNHTKELEDKVVEL [I22V], 2.58.
With SDYISEFRFAPNHTKELEDKVWEL [I22W], the protein stability index is 2.45.
For SDYISEFRFAPNHTKEMEDKVIEL [L17M] the value was 2.47; for SDYISEFRFAPNHTKENEDKVIEL [L17N], 2.17; for SDYISEFRFAPNHTKEAEDKVIEL [L17A], 1.87.
SDYISEFRFAPNHTKEFEDKVIEL [L17F]: the protein stability index was found to be 2.86.
Take SDYISEFRFAPNHTKEGEDKVIEL [L17G]: the protein stability index amounted to 1.97.
For SDYISEFTFAPNHTKELEDKVIEL [R8T], the protein stability index was 3.99.
Consider SDYISEFEFAPNHTKELEDKVIEL [R8E], for which the protein stability index worked out at 4.47.
As for SDYISEFLFAPNHTKELEDKVIEL [R8L], the protein stability index was 3.24.
On to SDYISEFQFAPNHTKELEDKVIEL [R8Q], for which the protein stability index is 4.1.
In the case of SDYISEFIFAPNHTKELEDKVIEL [R8I], the protein stability index was 3.24.
In the case of SDYISEFCFAPNHTKELEDKVIEL [R8C] it was 4.05.
As for SDYISEFRFAPNHTKELEDAVIEL [K20A], the protein stability index turned out to be 2.4.
Turning to SDYISEFRFAPNHTKELEDTVIEL [K20T], the protein stability index came to 1.68.
For SDYISEFRFAPNHTKELEDSVIEL [K20S] the value was 2.3; for SDYISEFRFAPNHTKELEDRVIEL [K20R], 1.83.
Turning to SDYISEFRFAPNHTKELEDHVIEL [K20H], the protein stability index stood at 1.79.
In the case of SDYISEFRFAPNHTKELEDLVIEL [K20L], the protein stability index worked out at 2.28.
With SDYIYEFRFAPNHTKELEDKVIEL [S5Y], the protein stability index is 1.66.
For the variant SDYIDEFRFAPNHTKELEDKVIEL [S5D], the protein stability index was determined as 3.8.
For SDYIAEFRFAPNHTKELEDKVIEL [S5A] the value was 1.93; for SDYILEFRFAPNHTKELEDKVIEL [S5L], 1.92.
With SDYIIEFRFAPNHTKELEDKVIEL [S5I], the protein stability index was found to be 2.02.
In the case of SDYIWEFRFAPNHTKELEDKVIEL [S5W] it was 1.82.
Turning to SDYIQEFRFAPNHTKELEDKVIEL [S5Q], the protein stability index was 2.7.
As for MDYISEFRFAPNHTKELEDKVIEL [S1M], the protein stability index came out at 1.92.
As for SDYISEFRFAPNHTKELERKVIEL [D19R], the protein stability index stood at 1.39.
For SDYISEFRFAPNHTKELEGKVIEL [D19G] the value was 2.06; for SDYISEFRFAPNHTKELENKVIEL [D19N], 1.79; for SDYISEFRFAPNHTKELEKKVIEL [D19K], 1.89.
For SDYISEFRFAPNHTKELELKVIEL [D19L], the protein stability index was 2.69.
In the case of SDYISEFRFAPNHTKELECKVIEL [D19C] it was 2.02; in that of SRYISEFRFAPNHTKELEDKVIEL [D2R], 2.02.
Consider SWYISEFRFAPNHTKELEDKVIEL [D2W], for which the protein stability index was found to be 1.89.
Regarding SCYISEFRFAPNHTKELEDKVIEL [D2C], the protein stability index was 2.46.
In the case of SDYISENRFAPNHTKELEDKVIEL [F7N] it was 4.96; in that of SDYISEVRFAPNHTKELEDKVIEL [F7V], 4.46.
Consider SDYISEKRFAPNHTKELEDKVIEL [F7K], for which the protein stability index was determined as 4.38.
For the variant SDYISEFRFAPNHTKELEDKVIPL [E23P], the protein stability index came to 1.82.
For the variant SDYISEFRFAPNHTKELEDKVIYL [E23Y], the protein stability index was 2.38.
SDYISEFRFAPNHTKELEDKVIFL [E23F]: the protein stability index was 3.17.
For the variant SDYISEFRFAPNHTKELEDKVIVL [E23V], the protein stability index came out at 2.38.
As to SDYISEFRFAPNHTKELEDKVIAL [E23A], the protein stability index is 1.9.
For SDYISEFRFAPNHTKELEDKVIGL [E23G] the value was 1.72.
For SDYISEFRFAPNHTKELEDKVIIL [E23I] the value was 1.55; for SDYISEFRFAPNHTIELEDKVIEL [K15I], 1.9.
Take SDYISEFRFAPNHTGELEDKVIEL [K15G]: the protein stability index came to 2.1.
As for SDYISEFRFAPNHTKELEDKMIEL [V21M], the protein stability index is 3.45.
In the case of SDYISEFRFAPNHTKELEDKSIEL [V21S], the protein stability index came out at 2.05.
On to SDYISEFRFGPNHTKELEDKVIEL [A10G], for which the protein stability index turned out to be 3.92.
Regarding SDYISEFRFSPNHTKELEDKVIEL [A10S], the protein stability index worked out at 2.61.
As for SDYISEFRFQPNHTKELEDKVIEL [A10Q], the protein stability index turned out to be 2.35.
Take SDYISEFRFDPNHTKELEDKVIEL [A10D]: the protein stability index came out at 4.37.
In the case of SDYISEFRFMPNHTKELEDKVIEL [A10M], the protein stability index worked out at 3.
SDYISEFRFAPNHTKELEDKVIEG [L24G]: the protein stability index came to 3.33.
Turning to SDYISEFRFAPNHTKELEDKVIET [L24T], the protein stability index is 2.28.
In the case of SDYISEFRFAPNHTKELEDKVIER [L24R] it was 2.69; in that of SDYISEFRFAPNHTKELEDKVIEW [L24W], 2.44.
For the variant SDYISEFRFAPNHTKELEDKVIEE [L24E], the protein stability index amounted to 2.65.
With SDYISEFRFAPNHTKELEDKVIEC [L24C], the protein stability index came out at 3.05.
Take SDYISEFRCAPNHTKELEDKVIEL [F9C]: the protein stability index turned out to be 3.93.
Consider SDYISEFRWAPNHTKELEDKVIEL [F9W], for which the protein stability index worked out at 3.54.
For SDYISEFRFADNHTKELEDKVIEL [P11D] the value was 4.29.
Take SDYISEFRFARNHTKELEDKVIEL [P11R]: the protein stability index came out at 2.64.
Regarding SDLISEFRFAPNHTKELEDKVIEL [Y3L], the protein stability index was found to be 2.08.
For the variant SDVISEFRFAPNHTKELEDKVIEL [Y3V], the protein stability index is 1.97.
Regarding SDFISEFRFAPNHTKELEDKVIEL [Y3F], the protein stability index came out at 1.91.
SDYSSEFRFAPNHTKELEDKVIEL [I4S]: the protein stability index is 3.49.
SDYDSEFRFAPNHTKELEDKVIEL [I4D]: the protein stability index was found to be 4.2.
As to SDYPSEFRFAPNHTKELEDKVIEL [I4P], the protein stability index worked out at 3.76.
As for SDYWSEFRFAPNHTKELEDKVIEL [I4W], the protein stability index amounted to 3.03.

The values above are taken from the supplement of paper PMC10567573.
